US20240116985A1 (published 2024)
Starred links: 1 amine or outer side, 2 acyl side, 3 side chain; linkers in the order of their positions; H or OH if unused. Positions of bridges follow the written chain, without caps; N, C: chain ends. Non-standard residues stand in square brackets, D forms with d. Primed or numbered codes have the meaning given here. *: point of attachment. B5(29) = 2-amino-2-(pent-4-en-1-yl)hept-6-enoic acid (2,2-bis(4-pentenyl)glycine), stitching residue bearing both staples, C=CCCCC(CCCC=C)(N[*:1])C(=O)[*:2]; B5(6) = 2-amino-2-(pent-4-en-1-yl)hept-6-enoic acid (bis(4-pentenyl)glycine), stitching residue, C=CCCCC(CCCC=C)(N[*:1])C(=O)[*:2]; PyrS2 = (S)-3-amino-1-((pent-4-en-1-yloxy)carbonyl)pyrrolidine-3-carboxylic acid, C=CCCCOC(=O)N1CC[C@@](N[*:1])(C(=O)[*:2])C1; B5(3) = 2,2-bis(4-pentenyl)glycine (stitching residue), C=CCCCC(CCCC=C)(N[*:1])C(=O)[*:2]; Bta = N[C@@H](Cc1csc2ccccc12)C(=O)O; αAllylPro = C=CC[C@@]1(C(=O)O)CCCN1; tBuAla = CC(C)(C)C[C@H](N)C(=O)O; 3Thi = N[C@@H](Cc1ccsc1)C(=O)O; S8 = C=CCCCCCC[C@](C)(N)C(=O)O; hSer = N[C@@H](CCO)C(=O)O; Butyryl = CCCC(=O)*

T1: B-cat-Halo (beta-catenin HaloTag NanoBRET construct expressed in HEK293 cells) (UniProt P35222 1-781)
T1 sequence (looked up): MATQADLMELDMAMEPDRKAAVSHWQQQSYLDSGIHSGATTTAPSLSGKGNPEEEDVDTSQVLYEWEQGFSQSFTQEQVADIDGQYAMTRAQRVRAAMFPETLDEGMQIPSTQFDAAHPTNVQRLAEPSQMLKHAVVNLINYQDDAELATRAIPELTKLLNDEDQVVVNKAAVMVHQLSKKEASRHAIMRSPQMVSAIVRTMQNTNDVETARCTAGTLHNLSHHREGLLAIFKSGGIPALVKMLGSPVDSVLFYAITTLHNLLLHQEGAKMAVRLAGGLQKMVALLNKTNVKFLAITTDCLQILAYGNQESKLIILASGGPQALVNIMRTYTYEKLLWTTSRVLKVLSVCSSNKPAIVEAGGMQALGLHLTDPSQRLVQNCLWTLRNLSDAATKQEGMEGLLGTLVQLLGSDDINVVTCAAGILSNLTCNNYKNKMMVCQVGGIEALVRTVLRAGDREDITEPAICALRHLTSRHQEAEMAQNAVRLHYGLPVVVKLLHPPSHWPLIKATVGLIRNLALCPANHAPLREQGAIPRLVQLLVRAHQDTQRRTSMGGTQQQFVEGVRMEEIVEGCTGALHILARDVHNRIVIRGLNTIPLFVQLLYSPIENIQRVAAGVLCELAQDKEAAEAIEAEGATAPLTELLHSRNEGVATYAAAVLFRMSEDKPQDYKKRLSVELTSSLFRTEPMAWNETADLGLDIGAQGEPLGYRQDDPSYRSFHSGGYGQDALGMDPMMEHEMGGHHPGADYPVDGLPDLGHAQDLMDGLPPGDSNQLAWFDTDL

T2: full-length beta-Catenin (Uniprot ID P35222) (Homo sapiens (Human), UniProt P35222 1-781)
T2 construct: Used full-length in the fluorescence polarization probe solution (10 nM); also called bCat; B-Catenin
T2 sequence: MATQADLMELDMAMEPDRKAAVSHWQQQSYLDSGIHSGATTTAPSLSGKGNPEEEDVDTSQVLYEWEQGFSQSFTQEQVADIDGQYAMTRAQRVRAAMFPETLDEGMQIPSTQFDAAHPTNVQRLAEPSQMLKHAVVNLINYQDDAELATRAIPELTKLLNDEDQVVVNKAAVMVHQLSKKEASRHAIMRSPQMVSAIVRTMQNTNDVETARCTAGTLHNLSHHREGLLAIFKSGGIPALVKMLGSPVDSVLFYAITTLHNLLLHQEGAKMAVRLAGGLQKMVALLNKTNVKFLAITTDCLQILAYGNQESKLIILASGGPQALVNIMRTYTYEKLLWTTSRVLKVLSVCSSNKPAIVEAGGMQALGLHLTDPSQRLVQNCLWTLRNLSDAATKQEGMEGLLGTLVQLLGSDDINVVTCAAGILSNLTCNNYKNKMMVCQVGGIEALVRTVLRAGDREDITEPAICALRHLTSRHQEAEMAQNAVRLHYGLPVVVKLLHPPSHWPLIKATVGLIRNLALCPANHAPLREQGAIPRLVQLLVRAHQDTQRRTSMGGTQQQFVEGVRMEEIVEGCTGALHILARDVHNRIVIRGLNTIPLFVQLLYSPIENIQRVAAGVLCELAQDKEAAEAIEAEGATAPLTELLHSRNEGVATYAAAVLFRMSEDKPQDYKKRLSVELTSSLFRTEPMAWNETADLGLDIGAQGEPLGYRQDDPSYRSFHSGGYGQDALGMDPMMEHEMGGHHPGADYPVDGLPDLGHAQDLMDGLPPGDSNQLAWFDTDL

B1: I-475 (peptide)
peptide: XDIXDEAAFNXFXQ
modifications: not fully specified; Ac-PL3-Asp-aIle-B5-Asp-Glu-Ala-Ala-Phe-Asn-S8-Phe-BztA-Gln-NH2; N-terminal acetyl, C-terminal amide; stapled PL3-B5 and B5-S8
notes: Stapled peptide composition
B2: I-476 (peptide)
peptide: XDIXDEAAFNXFXQ
modifications: not fully specified; Ac-PL3-Asp-aIle-B5-Asp-Glu-Ala-Ala-Phe-Asn-S8-Phe-BztA-Gln-NH2; N-terminal acetyl, C-terminal amide; stapled PL3-B5 and B5-S8
notes: Stapled peptide composition
B3: I-478 (peptide)
peptide: XDAXDEAAFNXFXH
modifications: not fully specified; Ac-PL3-Asp-Ala-B5-Asp-Glu-Ala-Ala-Phe-Asn-S8-Phe-BztA-1MeH-NH2; N-terminal acetyl, C-terminal amide; stapled PL3-B5 and B5-S8
notes: Stapled peptide composition
B4: I-479 (peptide)
peptide: XDAXDEAAFNXFXH
modifications: not fully specified; Ac-PL3-Asp-Ala-B5-Asp-Glu-Ala-Ala-Phe-Asn-S8-Phe-BztA-1MeH-NH2; N-terminal acetyl, C-terminal amide; stapled PL3-B5 and B5-S8
notes: Stapled peptide composition
B5: I-495 (peptide)
peptide: XDIXDEAAFQXFXN
modifications: not fully specified; Ac-PL3-Asp-Ile-B5-Asp-Glu-Ala-Ala-Phe-Gln-S8-Phe-BztA-Asn-NH2; N-terminal acetyl, C-terminal amide; stapled PL3-B5 and B5-S8
notes: Stapled peptide composition
B6: I-494 (peptide)
peptide: XDAXDEAAFQXFXQ
modifications: not fully specified; Ac-PL3-Asp-Ala-B5-Asp-Glu-Ala-Ala-Phe-Gln-S8-Phe-BztA-DGIn-NH2 (so in the source); read as D-Gln at position 14); N-terminal acetyl, C-terminal amide; stapled PL3-B5 and B5-S8
notes: Stapled peptide composition
B7: I-491 (peptide)
peptide: XDAXDEAAFQXFXS
modifications: not fully specified; Ac-PL3-Asp-Ala-B5-Asp-Glu-Ala-Ala-Phe-Gln-S8-Phe-BztA-Hse-NH2; N-terminal acetyl, C-terminal amide; stapled PL3-B5 and B5-S8
notes: Stapled peptide composition
B8: I-492 (peptide)
peptide: XDAXDEAAFQXFXS
modifications: not fully specified; Ac-PL3-Asp-Ala-B5-Asp-Glu-Ala-Ala-Phe-Gln-S8-Phe-BztA-Hse-NH2; N-terminal acetyl, C-terminal amide; stapled PL3-B5 and B5-S8
notes: Stapled peptide composition
B9: I-493 (peptide)
peptide: XDAXDEAAFQXFXS
modifications: not fully specified; Ac-PL3-Asp-Ala-B5-Asp-Glu-Ala-Ala-Phe-Gln-S8-Phe-BztA-DSer-NH2; N-terminal acetyl, C-terminal amide; D-Ser at position 14; stapled PL3-B5 and B5-S8
notes: Stapled peptide composition
B10: I-496 (peptide)
peptide: Ac-[αAllylPro]DA[B5(6)][hSer]EAAFQ[S8]F[Bta]Q-NH2
modifications: staple 1-4, 4-11; not fully specified; printed as Ac-PL3-Asp-Ala-B5-Hse-Glu-Ala-Ala-Phe-Gln-S8-Phe-BztA-Gln-NH2
notes: Stapled peptide composition
B11: I-497 (peptide)
peptide: Ac-[αAllylPro]DA[B5(6)][hSer]EAAFQ[S8]F[Bta]Q-NH2
modifications: staple 1-4, 4-11; not fully specified; printed as Ac-PL3-Asp-Ala-B5-Hse-Glu-Ala-Ala-Phe-Gln-S8-Phe-BztA-Gln-NH2
notes: Stapled peptide composition
B12: I-498 (peptide)
peptide: Ac-[αAllylPro]DA[B5(6)][hSer]EAAFQ[S8]F[Bta]Q-NH2
modifications: staple 1-4, 4-11; not fully specified; printed as Ac-PL3-Asp-Ala-B5-Hse-Glu-Ala-Ala-Phe-Gln-S8-Phe-BztA-Gln-NH2
notes: Stapled peptide composition

These binders were tested against T1, B-cat-Halo (beta-catenin HaloTag …) (assay: cell-based or functional assay).
In the case of Ac-[αAllylPro]D[tBuAla][B5(3)]DDAK(mPEG2)FN[PyrS2][3Thi][Bta]Q-NH2 (staple 1-4, 4-11; not fully specified) [I-892], the “NanoBRET Abs IC50” value is reported as > 20000 nM.
With Ac-[αAllylPro]D[tBuAla][B5(3)]DDAK(Butyryl)FN[PyrS2][3Thi][Bta]Q-NH2 (staple 1-4, 4-11) [I-897] the “NanoBRET Abs IC50” value was > 20000 nM.

What follows are binders tested against T2, full-length beta-Catenin (Uniprot ID …) (assay: fluorescence polarization competition; displacement of 5FAM-TCF4(10-53) from full-length beta-catenin).
Procedure: The plate was incubated protected from light for 60 minutes at 20° C. prior to read. Reads were performed on a CLARIOstar plate reader (BMG Labtech) in duplicate, and data were fitted to a 1:1 binding model with hill slope using an in-house script. All provided concentrations are final concentrations.
In the case of Ac-[αAllylPro]DI[B5(6)]DEAAFN[S8]F[Bta]H-NH2 (staple 1-4, 4-11, Stapled peptide composition) [I-472], the EC50 is reported as 62 nM.
Ac-[αAllylPro]DI[B5(6)]DDAAFN[S8]F[Bta]H-NH2 (staple 1-4, 4-11; also: separate HPLC peak/isomer composition from I-469, Stapled peptide composition) [I-470] gave an EC50 of 11 nM.
Binder Ac-[αAllylPro]DI[B5(6)]DEAAFQ[S8]F[Bta]H-NH2 (staple 1-4, 4-11, Stapled peptide composition) [I-471] has an EC50 of 52 nM.
B1 was tested, and the EC50 was 102 nM.
Binder B2 has an EC50 of 48 nM.
B3 was tested, and the EC50 was 71 nM.
In the case of B4, the EC50 is reported as 27 nM.
In the case of B5, the EC50 is reported as 181 nM.
Work on B6 yielded an EC50 of 82 nM.
In the case of Ac-[αAllylPro]DT[B5(29)]DEAAFQ[S8]F[Bta]Q-NH2 (staple 1-4, 4-11, Stapled peptide composition) [I-477], the EC50 is reported as 119 nM.
For B7, the EC50 was 153 nM.
In the case of B8, the EC50 is reported as 53 nM.
Work on B9 yielded an EC50 of 88 nM.
Binder B10 has an EC50 of 5000 nM.
B11 gave an EC50 of 5000 nM.
B12 was tested, and the EC50 was 5000 nM.
